Measurements as given in the MegaScale stability set (Tsuboyama et al. 2023).

B1: EEHEE_rd3_1049 (parent)
chain: TTVKLGDIKVTFDNPEKAKKYAQKLAKIYQLTVHVHGDTIHVK

Variants of: B1
Assay: folding stability dG (cDNA display proteolysis); higher = more stable
Settings: PBS, room temperature

Variant	folding stability dG
TTVKLGDIKVTFDNPGKAKKYAQKLAKIYQLTVHVHGDTIHVK [E16G]	1.54 kcal/mol
TTVKLGDIKVTFDNPHKAKKYAQKLAKIYQLTVHVHGDTIHVK [E16H]	1.8 kcal/mol
TTVKLGDIKVTFDNPRKAKKYAQKLAKIYQLTVHVHGDTIHVK [E16R]	1.82 kcal/mol
TTVKLGDIKVTIDNPEKAKKYAQKLAKIYQLTVHVHGDTIHVK [F12I]	0.634 kcal/mol
TTVKLGDIKVTCDNPEKAKKYAQKLAKIYQLTVHVHGDTIHVK [F12C]	1.74 kcal/mol
TTVKLGDIKVTYDNPEKAKKYAQKLAKIYQLTVHVHGDTIHVK [F12Y]	0.563 kcal/mol
TTVKLGDIKVTPDNPEKAKKYAQKLAKIYQLTVHVHGDTIHVK [F12P]	0.089 kcal/mol
TTVKLGDIKVTADNPEKAKKYAQKLAKIYQLTVHVHGDTIHVK [F12A]	0.107 kcal/mol
TTVKLGDIKVTLDNPEKAKKYAQKLAKIYQLTVHVHGDTIHVK [F12L]	0.617 kcal/mol
TTVKLGDIKVTGDNPEKAKKYAQKLAKIYQLTVHVHGDTIHVK [F12G]	-0.438 kcal/mol
TTVKLGDIKVTMDNPEKAKKYAQKLAKIYQLTVHVHGDTIHVK [F12M]	0.628 kcal/mol
TTVKLGDIKVTWDNPEKAKKYAQKLAKIYQLTVHVHGDTIHVK [F12W]	0.742 kcal/mol
TTVKLGDIKVTDDNPEKAKKYAQKLAKIYQLTVHVHGDTIHVK [F12D]	-0.148 kcal/mol
TTVKLGDIKVTVDNPEKAKKYAQKLAKIYQLTVHVHGDTIHVK [F12V]	0.419 kcal/mol
TTVKLGDIKVTNDNPEKAKKYAQKLAKIYQLTVHVHGDTIHVK [F12N]	-0.055 kcal/mol
TTVKLGDIKVTKDNPEKAKKYAQKLAKIYQLTVHVHGDTIHVK [F12K]	0.115 kcal/mol
TTVKLGDIKVTSDNPEKAKKYAQKLAKIYQLTVHVHGDTIHVK [F12S]	-0.062 kcal/mol
TTVKLGDIKVTHDNPEKAKKYAQKLAKIYQLTVHVHGDTIHVK [F12H]	0.172 kcal/mol
TTVKLGDIKVTEDNPEKAKKYAQKLAKIYQLTVHVHGDTIHVK [F12E]	0.041 kcal/mol
TTVKLGDIKVTQDNPEKAKKYAQKLAKIYQLTVHVHGDTIHVK [F12Q]	0.131 kcal/mol

Variant	folding stability dG
TTVKLGDIKVTTDNPEKAKKYAQKLAKIYQLTVHVHGDTIHVK [F12T]	0.094 kcal/mol
TTVKLGDIKVTRDNPEKAKKYAQKLAKIYQLTVHVHGDTIHVK [F12R]	0.188 kcal/mol
TTVKLGDIKVTFDNEEKAKKYAQKLAKIYQLTVHVHGDTIHVK [P15E]	1.72 kcal/mol
TTVKLGDIKVTFDNAEKAKKYAQKLAKIYQLTVHVHGDTIHVK [P15A]	2.09 kcal/mol
TTVKLGDIKVTFDNREKAKKYAQKLAKIYQLTVHVHGDTIHVK [P15R]	1.88 kcal/mol
TTVKLGDIKVTFDNIEKAKKYAQKLAKIYQLTVHVHGDTIHVK [P15I]	2.01 kcal/mol
TTVKLGDIKVTFDNSEKAKKYAQKLAKIYQLTVHVHGDTIHVK [P15S]	1.59 kcal/mol
TTVKLGDIKVTFDNNEKAKKYAQKLAKIYQLTVHVHGDTIHVK [P15N]	1.43 kcal/mol
TTVKLGDIKVTFDNGEKAKKYAQKLAKIYQLTVHVHGDTIHVK [P15G]	1.3 kcal/mol
TTVKLGDIKVTFDNVEKAKKYAQKLAKIYQLTVHVHGDTIHVK [P15V]	1.96 kcal/mol
TTVKLGDIKVTFDNTEKAKKYAQKLAKIYQLTVHVHGDTIHVK [P15T]	1.4 kcal/mol
TTVKLGDIKVTFDNDEKAKKYAQKLAKIYQLTVHVHGDTIHVK [P15D]	1.16 kcal/mol
TTVKLGDIKVTFDNYEKAKKYAQKLAKIYQLTVHVHGDTIHVK [P15Y]	2.53 kcal/mol
TTVKLGDIKVTFDNFEKAKKYAQKLAKIYQLTVHVHGDTIHVK [P15F]	3.11 kcal/mol
TTVKLGDIKVTFDNQEKAKKYAQKLAKIYQLTVHVHGDTIHVK [P15Q]	1.65 kcal/mol
TTVKLGDIKVTFDNMEKAKKYAQKLAKIYQLTVHVHGDTIHVK [P15M]	2.1 kcal/mol
TTVKLGDIKVTFDNHEKAKKYAQKLAKIYQLTVHVHGDTIHVK [P15H]	2.04 kcal/mol
TTVKLGDIKVTFDNLEKAKKYAQKLAKIYQLTVHVHGDTIHVK [P15L]	2.08 kcal/mol
TTVKLGDIKVTFDNWEKAKKYAQKLAKIYQLTVHVHGDTIHVK [P15W]	2.47 kcal/mol
TTVKLGDIKVTFDNKEKAKKYAQKLAKIYQLTVHVHGDTIHVK [P15K]	1.78 kcal/mol

Variant	folding stability dG
TTVKLGDIKVTFDQPEKAKKYAQKLAKIYQLTVHVHGDTIHVK [N14Q]	1.25 kcal/mol
TTVKLGDIKVTFDFPEKAKKYAQKLAKIYQLTVHVHGDTIHVK [N14F]	1.2 kcal/mol
TTVKLGDIKVTFDLPEKAKKYAQKLAKIYQLTVHVHGDTIHVK [N14L]	1.32 kcal/mol
TTVKLGDIKVTFDEPEKAKKYAQKLAKIYQLTVHVHGDTIHVK [N14E]	1.4 kcal/mol
TTVKLGDIKVTFDPPEKAKKYAQKLAKIYQLTVHVHGDTIHVK [N14P]	0.431 kcal/mol
TTVKLGDIKVTFDKPEKAKKYAQKLAKIYQLTVHVHGDTIHVK [N14K]	1.25 kcal/mol
TTVKLGDIKVTFDGPEKAKKYAQKLAKIYQLTVHVHGDTIHVK [N14G]	1.05 kcal/mol
TTVKLGDIKVTFDSPEKAKKYAQKLAKIYQLTVHVHGDTIHVK [N14S]	2.12 kcal/mol
TTVKLGDIKVTFDCPEKAKKYAQKLAKIYQLTVHVHGDTIHVK [N14C]	2.02 kcal/mol
TTVKLGDIKVTFDIPEKAKKYAQKLAKIYQLTVHVHGDTIHVK [N14I]	1.22 kcal/mol
TTVKLGDIKVTFDAPEKAKKYAQKLAKIYQLTVHVHGDTIHVK [N14A]	1.18 kcal/mol
TTVKLGDIKVTFDRPEKAKKYAQKLAKIYQLTVHVHGDTIHVK [N14R]	1.26 kcal/mol
TTVKLGDIKVTFDHPEKAKKYAQKLAKIYQLTVHVHGDTIHVK [N14H]	1.61 kcal/mol
TTVKLGDIKVTFDDPEKAKKYAQKLAKIYQLTVHVHGDTIHVK [N14D]	2.38 kcal/mol
TTVKLGDIKVTFDYPEKAKKYAQKLAKIYQLTVHVHGDTIHVK [N14Y]	1.05 kcal/mol
TTVKLGDIKVTFDVPEKAKKYAQKLAKIYQLTVHVHGDTIHVK [N14V]	1.12 kcal/mol
TTVKLGDIKVTFDTPEKAKKYAQKLAKIYQLTVHVHGDTIHVK [N14T]	1.98 kcal/mol
TTVKLGDIKVTFDMPEKAKKYAQKLAKIYQLTVHVHGDTIHVK [N14M]	1.2 kcal/mol
TTVKLGDIKVTFDWPEKAKKYAQKLAKIYQLTVHVHGDTIHVK [N14W]	1.34 kcal/mol
